Assay results: patent US20260209353A1 (BINACEA PHARMA, published 2026)
Residue numbers refer to the chain shown, from its start.

B1: Clone 1D7 VHH (secreted VHH in TG1 supernatant) (VHH)
VHH: QVQLQESGGGLVQAGGSLRLSCAASGFTFDDYAIGWFRQAPGKEREGVSCISNIDGRTYYADSVKGRFTISSDNAKNTVYLQMNSLKPEDTAVYYCAAEGLHSCRDLYYGMDYWGKGTLVTVSS
notes: Expressed from phagemid pADL-23c
B2: Clone 2G7 VHH (secreted VHH in TG1 supernatant) (VHH)
VHH: B1 VHH with Q3K, Q5E, R57S, Y113H
notes: as for B1
B3: Clone 1E2 VHH (secreted VHH in TG1 supernatant) (VHH)
VHH: B1 VHH with S103P
notes: as for B1
B4: Clone 2B10 VHH (secreted VHH in TG1 supernatant) (VHH)
VHH: B1 VHH with Q5V, R57S, H102R
notes: as for B1
B5: Clone 2E7 VHH (secreted VHH in TG1 supernatant) (VHH)
VHH: B1 VHH with F27V, T28P, R57S
notes: as for B1
B6: Clone 1B3 VHH (secreted VHH in TG1 supernatant) (VHH)
VHH: B1 VHH with R57H, R105K
notes: as for B1
B7: Clone 1B1 VHH (secreted VHH in TG1 supernatant) (VHH)
VHH: B1 VHH with R19K, D30N, R38P, S52I, R57S, T69P
notes: as for B1
B8: Clone 2G1 VHH (secreted VHH in TG1 supernatant) (VHH)
VHH: B1 VHH with N53S, R57S, S72R, A75D, A97T, L119Q
notes: as for B1
B9: Clone 3C3 VHH (secreted VHH in TG1 supernatant) (VHH)
VHH: QVQLVDSGGGLVQAGGSLRVSCAASGLTVSSEHMGWFRQAPGKQREFVAAISGNGGSTYYADSVKGRFTISRDNAKNTVYLQMNSLKPEDTAVYTCAADRQVWRVTSYHDYDYDSWGQGTLVTVSS
notes: as for B1

Target: T1, hu-CD8A ECD (recombinant, coated on ELISA plates) (human, UniProt P01732 22-182)
T1 construct: also called Human CD8A ECD; not shown: C-terminal (His)x6 or Fc tag
T1 sequence (P01732 22-182): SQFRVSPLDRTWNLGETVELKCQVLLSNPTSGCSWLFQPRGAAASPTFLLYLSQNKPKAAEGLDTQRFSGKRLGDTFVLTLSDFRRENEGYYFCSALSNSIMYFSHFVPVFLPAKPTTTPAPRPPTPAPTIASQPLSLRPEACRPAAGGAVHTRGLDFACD
Experiment: ELISA, VHH supernatants on hu-CD8A ECD coated plates

Binder	binding result
B1	binds
B2	binds
B3	binds
B4	binds
B5	binds
B6	binds
B7	binds
B8	binds
B9	binds
